{
  "source": "paper PMC7923543",
  "about": "“Molecular mechanisms of assembly and TRIP13-mediated remodeling of the human Shieldin complex” (Proceedings of the National Academy of Sciences of the …, 2021)",
  "binders": {"B1": {"name": "SHLD3 35- to 74-residue fragment (domain or fragment, human, UniProt Q6ZNX1 35-74, looked up)", "chain": "LSRFIPWFPYDGSKLPLRPKRSPPVISEEAAEDVKQYLTI", "notes": "SHLD3, human, 250 residues; residues 35-74; also called SHLD3_(35–74); source: E. coli, coexpressed with REV7(R124A), purified as the complex"}, "B2": {"name": "SHLD2 fragment (residues 1 to 19), the SHLD2 part of SHLD2.3 (domain or fragment, human, UniProt Q86V20 1-19, looked up)", "chain": "MSGGSQVHIFWGAPIAPLK", "notes": "In the crystal it stood on one chain with SHLD3(1-58); written apart for the SHLD2–SHLD3 and SHLD2–REV7 contacts; also called SHLD2(residues 1 to 19); source: E. coli BL21 CodonPlus(DE3)-RIL, as part of the SHLD2.3 fusion chain, purified with REV7"}, "B3": {"name": "SHLD3s fusion protein (SHLD3 residues 35 to 58 and REV3 residues 1887 to 1894) (other, UniProt Q6ZNX1 35-58, looked up)", "chain": "LSRFIPWFPYDGSKLPLRPKRSPPREEIMATL", "notes": "SHLD3, human, residues 35-58; also called SHLD3_(35–58)"}, "B4": {"name": "TRIP13 catalytic mutant (E253Q) hexamer (enzyme)", "chain": "MDEAVGDLKQALPCVAESPTVHVEVHQRGSSTAKKEDINLSVRKLLNRHNIVFGDYTWTEFDEPFLTRNVQSVSIIDTELKVKDSQPIDLSACTVALHIFQLNEDGPSSENLEEETENIIAANHWVLPAAEFHGLWDSLVYDVEVKSHLLDYVMTTLLFSDKNVNSNLITWNRVVLLHGPPGTGKTSLCKALAQKLTIRLSSRYRYGQLIEINSHSLFSKWFSESGKLVTKMFQKIQDLIDDKDALVFVLIDQVESLTAARNACRAGTEPSDAIRVVNAVLTQIDQIKRHSNVVILTTSNITEKIDVAFVDRADIKQYIGPPSAAAIFKIYLSCLEELMKCQIIYPRQQLLTLRELEMIGFIENNVSKLSLLLNDISRKSEGLSGRVLRKLPFLAHALYVQAPTVTIEGFLQALSLAVDKQFEERKKLAAYI", "notes": "TRIP13, AAA+ ATPase, E253Q; used with ATPγS; also called TRIP13(E253Q); TRIP13 (E253Q); source: E. coli BL21 CodonPlus(DE3)-RIL, purified (HiTrap Q, Superdex 200)"}},
  "key": {"[1]": {"target": "T1, REV7 (R124A mutant), full-length (human, UniProt Q9UI95 1-211, R124A)", "T1 construct": "REV7 (MAD2L2, MAD2B), human, 211 residues, R124A; R124A was introduced to improve crystallization; also called MAD2L2; MAD2B; source: E. coli BL21 CodonPlus(DE3)-RIL, coexpressed with the SHLD3 fragment, purified (HisTrap, HiTrap Q, Superdex 200); not shown: His6-SUMO, N-terminal, cleaved", "T1 sequence (Q9UI95 whole entry R124A, the tested form may be a part)": "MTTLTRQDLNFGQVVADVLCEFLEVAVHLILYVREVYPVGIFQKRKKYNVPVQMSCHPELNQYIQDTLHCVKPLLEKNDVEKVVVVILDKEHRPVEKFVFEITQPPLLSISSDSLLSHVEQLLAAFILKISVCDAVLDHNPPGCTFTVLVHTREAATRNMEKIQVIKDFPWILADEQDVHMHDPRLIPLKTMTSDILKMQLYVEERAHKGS", "test": "SEC-MALS; coexpressed, co-purified SHLD3(35–74)–REV7(R124A) complex; Superdex200 10/300, 20 mM Tris·HCl pH 7.5, 150 mM NaCl, 2 mM DTT", "settings": "both partners purified"}, "[2]": {"target": "T2, REV7 (human, UniProt Q9UI95 1-211)", "T2 construct": "REV7 (MAD2L2, MAD2B), human, 211 residues; also called MAD2L2; MAD2B; not shown: His6-SUMO, N-terminal, cleaved", "test": "crystal structure; SHLD2.3–REV7_(4) complex (peak Q2); hanging drop, 0.1 M Na acetate pH 5.6, 1.5 M Na formate, 20 °C; 3.8 Å", "settings": "both partners purified"}, "[3]": {"target": "T1, REV7 (R124A mutant), full-length", "test": "crystal structure; coexpressed, co-purified SHLD3s–REV7(R124A) complex; hanging drop, 0.2 M ammonium acetate, 0.1 M Na citrate pH 5.6, 30% PEG4000, 20 °C; 2.7 Å", "settings": "both partners purified"}, "[4]": {"target": "the molecule itself", "test": "cryo-EM structure; reconstituted complexes with TRIP13(E253Q) and ATPγS, 0.3 mg/mL, Titan Krios 300 kV, RELION3"}},
  "data": [
    {"binder": "B1", "values": [
      {"measurement": "binding result", "setting": "[1]", "value": "binds"}
    ]},
    {"binder": "B2", "values": [
      {"measurement": "binding result", "setting": "[2]", "value": "binds"}
    ]},
    {"binder": "B3", "values": [
      {"measurement": "binding result", "setting": "[3]", "value": "binds"}
    ]},
    {"binder": "B4", "values": [
      {"measurement": "stoichiometry N", "setting": "[4]", "value": 6}
    ]}
  ]
}
